Results: publication PMC5973699
Blank lines part the entries; values can stand above or below the substance they belong to.

Columns and labels:
[1] = molecular target: MabSelect SuRe resin ligand (engineered Protein A; alkaline resistant protein A domain); assay: capture on affinity resin
[2] = molecular target: GammaBind Plus resin ligand (affinity improved protein G); assay: capture on affinity resin

Substance: human IgG1 (pertuzumab) (antibody)
- binding capacity, tip column, 2 pipetting cycles [1]: 37 µg
- binding capacity, tip column, 4 pipetting cycles [1]: 46 µg
- binding capacity, tip column, 6 pipetting cycles (µg human IgG1 per µL of resin) [1]: 52
- binding capacity, tip column, 8 pipetting cycles (µg human IgG1 per µL of resin) [1]: 54
- binding capacity, tip column, 9 pipetting cycles (µg human IgG1 per µL of resin) [1]: 55
- static binding capacity (batch mode) (µg human IgG1 per µL of resin) [1]: 62

Substance: mouse IgG1 (antibody)
- binding capacity (µg mouse IgG1 per µL resin) [1]: 25

- Binding capacity (Batch Mode) (µg rat IgG2a /µL resin) [2]: 15
Substance: rat IgG2a (antibody)
